29 sequences from the supplement of paper PMC10567573 can be followed below.

± gives the standard deviation.

This data set in a line: protein stability index of a GFP-peptide fusion (GPS, HEK-293T) (PSI 1-6); higher = more stable.
[1] abbreviates: treatment: DMSO, c terminus: a fixed tail appended.
The mark [2] stands for this setting: treatment: MLN4924 1 uM, 8 h, c terminus: a fixed tail appended.
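Further: 24-mer peptide tiles fused after GFP, lentivirally expressed, FACS-sorted into six equal bins by GFP/DsRed ratio, decoded by Illumina sequencing, PSI is the read-weighted mean bin number.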

Take NTVKVQVLYPDGQAQMIHPKPADF [INTS4]: the protein stability index runs as follows: under setting [1], 3.05 ± 0.48; under setting [2], 3.08 ± 0.27.
For RAFAQIGPARSGFRLETLAGLRSR [MIR22HG] the same measures were 3.23 ± 0.53 and 3.2 ± 0.3.
On to YTGMFTSSPDLDDMKLIILANRLC [RHOBTB2], for which the protein stability index came to 2.73 ± 0.51 under setting [1] and 2.7 ± 0.51 under setting [2].
For FHTMDELVEHYKKAPIFTSEHGEK [NCK2] the same measures were 3.88 ± 0.35 and 3.97 ± 0.27.
For KRFQLTKLPPYLIFCIKRFTKNNF [USP39] the same measures were 2 ± 0.31 and 2.78 ± 0.81.
For VIKENDPSGFLQISDALIRRVHLT [TRIM9] the same measures were 2.07 ± 0.26 and 2.39 ± 0.34.
Take IHQESGKAPSTDDATWAAVAACTK [C10orf62]: the protein stability index is, setting by setting: under setting [1], 4.56 ± 0.18; under setting [2], 4.72 ± 0.32.
For GCMLIELALRGRLQLEACGMRRKS [GOLPH3] the same measures were 1.83 ± 0.31 and 2.25 ± 0.28.
ADSFESSDSLLQSWNSQSSLLDVQ [ETS2] gave a protein stability index under setting [1] of 4.38 ± 0.12 and a protein stability index under setting [2] of 4.56 ± 0.12.
On the same counts, the results for QVITQTGVPGQPLNFKAEPESETS [PTPRD] are 5.18 ± 0.24 and 5.31 ± 0.25.
On the same counts, the results for TLHGNVCSFCKRAFPSGHLLDAHI [ZNF511] are 2.81 ± 0.27 and 2.95 ± 0.46.
On the same counts, the results for FKRSVRRNLSYTCRANRNCPIDQH [NR2F2] are 2.71 ± 0.17 and 2.63 ± 0.33.
Take NLEKTIFCLQKLISLHPFNPWNWG [C8orf76]: the protein stability index came to 2.53 ± 0.77 under setting [1] and 2.59 ± 0.5 under setting [2].
For LANLRGLSEEERSEKAMLRSRIEE [CCDC89] the same measures were 4.67 ± 0.22 and 4.68 ± 0.12.
For PSSFDPSMLLQRFSVAPHETQTQR [RNF180] the same measures were 4.12 ± 0.14 and 3.95 ± 0.13.
For KKTMSTFHNLVSLNLNYNCISDEL [FBXO39] the same measures were 2.09 ± 0.21 and 2.18 ± 0.22.
With NRRSSRETREYAPPSRGHGYRDYG [RBMY1A1], the protein stability index was determined as 4.27 ± 0.24 under setting [1] and 4.09 ± 0.23 under setting [2].
AKGKVQAELSQPLTAGGAISELL [RBBP5]: the protein stability index reads like this: (treatment: DMSO, c terminus: native) 4.18 ± 0.3; (treatment: MLN4924 1 uM, 8 h, c terminus: native) 3.91 ± 0.34.
Consider LLLAHKADVNAQSSTGNTALTYAC [ANKRD17], for which the protein stability index runs as follows: under setting [1], 2.76 ± 0.18; under setting [2], 2.57 ± 0.18.
For the sequence EKYKPFSQVPTGEVFYYSCEYNFV [CFHR2], the protein stability index under setting [1] was determined as 2.78 ± 1.5.
Regarding VSQHWATWALYNLVSVYPDKYCPL [ZER1], the protein stability index under setting [1] was 3.07 ± 0.34 and the protein stability index under setting [2] was 2.74 ± 0.41.
For TPEVAAAPKPDAAPSIDLFSTDAF [SNAP91] the same measures were 4.75 ± 0.23 and 4.75 ± 0.12.
For LESLQDGAAESPYSHLGGIDYKTT [RAB40A] the same measures were 4.44 ± 0.12 and 4.35 ± 0.11.
For FWNFKQMWDSKKIGLRQHHCRKCG [WDFY2] the same measures were 2.34 ± 0.28 and 2.66 ± 0.45.
In the case of WTLKLDGNLQLDCLAQGWKQYQQR [RTP4], the protein stability index is, setting by setting: under setting [1], 2.2 ± 0.26; under setting [2], 2.55 ± 0.26.
For AFVSNSPKLFCPKNRSFDIDAIYS [PLD5] the same measures were 2.15 ± 0.8 and 2.51 ± 0.69.
For AGKALVISGREVFEFRPELVNDDD [ZC3H15] the same measures were 4.21 ± 0.57 and 4.23 ± 0.35.
HHPENGEETVTMLEDVERELDGPK [ZNF396] showed a protein stability index under setting [1] of 5.51 ± 0.13 and a protein stability index under setting [2] of 5.49 ± 0.15.
On the same counts, the results for IGSSSEKEIDDVIDEIISLESSYN [TFE3] are 4.37 ± 0.25 and 4.4 ± 0.22.
